{"source": "paper PMC9364715", "biological_target": "Ad5 hexon with DogTag inserted at HVR5, on Ad-DogTag virions (human adenovirus 5 (Ad5)) (UniProt P04133)", "test": "SDS-PAGE gel shift"}
{"substance": "DogCatcher fused to SARS-CoV-2 spike receptor-binding domain (DogCatcher-RBD) (from UniProt P0DTC2 319-532) (designed binder)", "values": [{"measurement": "percent of hexon covalently coupled (% of hexon monomers)", "result": 57}]}
